Tests used:
Settings in all cases: remark: other sources report otherwise
71C4 = assay: ELISA signal over HTRF expression signal, HEK293F
171E5 = assay: ELISA signal over HTRF expression signal, HEK293F
86B4 = assay: ELISA signal over HTRF expression signal, HEK293F
131B5 = assay: ELISA signal over HTRF expression signal, HEK293F
74H9 = assay: ELISA signal over HTRF expression signal, HEK293F
181H9 = assay: ELISA signal over HTRF expression signal, HEK293F
127H1 = assay: ELISA signal over HTRF expression signal, HEK293F
115A1 = assay: ELISA signal over HTRF expression signal, HEK293F
91C4 = assay: ELISA signal over HTRF expression signal, HEK293F
6E12 = assay: ELISA signal over HTRF expression signal, HEK293F
113E7 = assay: ELISA signal over HTRF expression signal, HEK293F
220C9 = assay: ELISA signal over HTRF expression signal, HEK293F
71H2 = assay: ELISA signal over HTRF expression signal, HEK293F
7A7 = assay: ELISA signal over HTRF expression signal, HEK293F
[1] = biological target: T1, H1-mini2-cluster1+5+6-GCN4 without leader sequence and with FLAG-thrombin-foldon-HIS; assay: ELISA signal over HTRF expression signal, P. pastoris; average of the parental
[2] = biological target: T1, H1-mini2-cluster1+5+6-GCN4 without …; assay: ELISA signal over HTRF expression signal, HEK293F; the reference itself

B1: CR6261 (antibody, V domains shown)
VH: EVQLVESGAEVKKPGSSVKVSCKASGGPFRSYAISWVRQAPGQGPEWMGGIIPIFGTTKYAPKFQGRVTITADDFAGTVYMELSSLRSEDTAMYYCAKHMGYQVRETMDVWGKGTTVTVSS
VL: QSVLTQPPSVSAAPGQKVTISCSGSSSNIGNDYVSWYQQLPGTAPKLLIYDNNKRPSGIPDRFSGSKSGTSATLGITGLQTGDEANYYCATWDRRPTAYVVFGGGTKLTVLG
71C4
  fold increase of ratio over parental SEQ ID NO: 6: 1.72
  ratio (binding signal/HTRF signal): 29.9
171E5
  fold increase of ratio over parental SEQ ID NO: 6: 1.62
  ratio (binding signal/HTRF signal): 28.1
86B4
  fold increase of ratio over parental SEQ ID NO: 6: 3.44
  ratio (binding signal/HTRF signal): 59.6
131B5
  fold increase of ratio over parental SEQ ID NO: 6: 2.36
  ratio (binding signal/HTRF signal): 41
74H9
  fold increase of ratio over parental SEQ ID NO: 6: 4.37
  ratio (binding signal/HTRF signal): 75.8
181H9
  fold increase of ratio over parental SEQ ID NO: 6: 2.11
  ratio (binding signal/HTRF signal): 36.6
127H1
  fold increase of ratio over parental SEQ ID NO: 6: 4.25
  ratio (binding signal/HTRF signal): 73.8
115A1
  fold increase of ratio over parental SEQ ID NO: 6: 3.14
  ratio (binding signal/HTRF signal): 54.5
91C4
  fold increase of ratio over parental SEQ ID NO: 6: 1.98
  ratio (binding signal/HTRF signal): 34.4
6E12
  fold increase of ratio over parental SEQ ID NO: 6: 2.85
  ratio (binding signal/HTRF signal): 49.5
113E7
  fold increase of ratio over parental SEQ ID NO: 6: 2.87
  ratio (binding signal/HTRF signal): 49.9
220C9
  fold increase of ratio over parental SEQ ID NO: 6: 3
  ratio (binding signal/HTRF signal): 52.1
71H2
  fold increase of ratio over parental SEQ ID NO: 6: 3.61
  ratio (binding signal/HTRF signal): 62.7
7A7
  fold increase of ratio over parental SEQ ID NO: 6: 1.47
  ratio (binding signal/HTRF signal): 25.5
[1]
  ratio (binding signal/HTRF signal): 5.94
[2]
  fold increase of ratio over parental SEQ ID NO: 6: 1

— patent publication US20170209564A1
